This is an account of results in patent publication US20260055210A1 (MONTEFIORE MEDICAL CENTER, published 2026).

The test has as its target T1, Human IgG1 Fc (human, UniProt P01857-1 100-330 = IgG part, limits assumed).
T1 construct: domain: Fc; Negative control; also called human IgG1 Fc domain
In words: flow cytometry, percent of bound cells, cMPL-expressing HEK293 cells. From the text:
To study the binding capabilities of the fusion polypeptide provided herein to thrombopoietin receptors, the fusion polypeptides were contacted with cells expressing thrombopoietin receptor cMPL. Mouse or human thrombopoietin receptor cMPL was expressed on the surface of Freestyle™ HEK293 cell line. Mouse or human thrombopoietin receptor cMPL were expressed as a fusion polypeptide with either GPF or mCherry. Expression of cMPL receptors was confirmed by measuring fluorescent signal. As a general control, PD1 protein binding to PDL1-expressing cells was used. Human IgG1 Fc and secondary antibody were used as a negative control since they would not be expected to bind to cMPL. […] The cMPL expressing cells were treated with Nplate (Romiplostim) as the positive control. FLT3L-romiplostim fusion polypeptide with a His-Tag, FLT3L-romiplostim fusion polypeptide without a His-Tag were tested. Binding was analyzed using a fluorescent secondary antibody against IgG1 domain of the polypeptide. The percentages of cells bound to the tested polypeptide were quantified.

B1: human thrombopoietin receptor cMPL expressed on the surface of Freestyle HEK293 cells (receptor, UniProt P40238 26-635, looked up)
chain: QDVSLLASDSEPLKCFSRTFEDLTCFWDEEEAAPSGTYQLLYAYPREKPRACPLSSQSMPHFGTRYVCQFPDQEEVRLFFPLHLWVKNVFLNQTRTQRVLFVDSVGLPAPPSIIKAMGGSQPGELQISWEEPAPEISDFLRYELRYGPRDPKNSTGPTVIQLIATETCCPALQRPHSASALDQSPCAQPTMPWQDGPKQTSPSREASALTAEGGSCLISGLQPGNSYWLQLRSEPDGISLGGSWGSWSLPVTVDLPGDAVALGLQCFTLDLKNVTCQWQQQDHASSQGFFYHSRARCCPRDRYPIWENCEEEEKTNPGLQTPQFSRCHFKSRNDSIIHILVEVTTAPGTVHSYLGSPFWIHQAVRLPTPNLHWREISSGHLELEWQHPSSWAAQETCYQLRYTGEGHQDWKVLEPPLGARGGTLELRPRSRYRLQLRARLNGPTYQGPWSSWSDPTRVETATETAWISLVTALHLVLGLSAVLGLLLLRWQFPAHYRRLRHALWPSLPDLHRVLGQYLRDTAALSPPKATVSDTCEEVEPSLLEILPKSSERTPLPLCSSQAQMDYRRLQPSCLGTMPLSVCPPMAESGSCCTTHIANHSYLPLSYWQQP
notes: whole, on cells; also called human cMPL; human cMLP; not shown: Fused with either GFP (printed 'GPF') or mCherry
Turning to B1, the binding result was “no binding”.

B2: mouse thrombopoietin receptor cMPL expressed on the surface of Freestyle HEK293 cells (receptor, UniProt Q08351 26-625, looked up)
chain: QDVFLLALGTEPLNCFSQTFEDLTCFWDEEEAAPSGTYQLLYAYRGEKPRACPLYSQSVPTFGTRYVCQFPAQDEVRLFFPLHLWVKNVSLNQTLIQRVLFVDSVGLPAPPRVIKARGGSQPGELQIHWEAPAPEISDFLRHELRYGPTDSSNATAPSVIQLLSTETCCPTLWMPNPVPVLDQPPCVHPTASQPHGPAPFLTVKGGSCLVSGLQAGKSYWLQLRSQPDGVSLRGSWGPWSFPVTVDLPGDAVTIGLQCFTLDLKMVTCQWQQQDRTSSQGFFRHSRTRCCPTDRDPTWEKCEEEEPRPGSQPALVSRCHFKSRNDSVIHILVEVTTAQGAVHSYLGSPFWIHQAVLLPTPSLHWREVSSGRLELEWQHQSSWAAQETCYQLRYTGEGREDWKVLEPSLGARGGTLELRPRARYSLQLRARLNGPTYQGPWSAWSPPARVSTGSETAWITLVTALLLVLSLSALLGLLLLKWQFPAHYRRLRHALWPSLPDLHRVLGQYLRDTAALSPSKATVTDSCEEVEPSLLEILPKSSESTPLPLCPSQPQMDYRGLQPCLRTMPLSVCPPMAETGSCCTTHIANHSYLPLSYWQQP
notes: whole, on cells; also called mouse cMPL; mouse cMLP; not shown: Fused with either GFP (printed 'GPF') or mCherry
For B2, the binding result is “no binding”.
